According to patent US20080207517A1 (INSTITUT PASTEUR, published 2008):
* marks the point of attachment. BODIPYFLEthylmaleimide = Cc1cc(C)n2c1C=C1C=CC(CCC(=O)NCCN3C(=O)CC(*)C3=O)=[N+]1[B-]2(F)F

T1: CC2 (WT) (murine, N-terminal acetyl group; C-terminal amide)
T1 construct: Forms a trimer at 10 uM in gel filtration; also called CC2 peptide; CC2 wild type
T1 peptide: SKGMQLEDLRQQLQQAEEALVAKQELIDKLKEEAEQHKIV

B1: BODIPY-R7-NLM-DR (peptide)
peptide: Ac-C(BODIPYFLEthylmaleimide)RRRRRRRLKAQADIYKARFQAERHAREK-NH2
SMILES: CC[C@H](C)[C@H](NC(=O)[C@H](CC(=O)O)NC(=O)[C@H](C)NC(=O)[C@H](CCC(N)=O)NC(=O)[C@H](C)NC(=O)[C@H](CCCCN)NC(=O)[C@H](CC(C)C)NC(=O)[C@H](CCCNC(=N)N)NC(=O)[C@H](CCCNC(=N)N)NC(=O)[C@H](CCCNC(=N)N)NC(=O)[C@H](CCCNC(=N)N)NC(=O)[C@H](CCCNC(=N)N)NC(=O)[C@H](CCCNC(=N)N)NC(=O)[C@H](CCCNC(=N)N)NC(=O)[C@H](CSC1CC(=O)N(CCNC(=O)CCC2=[N+]3C(=Cc4c(C)cc(C)n4[B-]3(F)F)C=C2)C1=O)NC(C)=O)C(=O)N[C@@H](Cc1ccc(O)cc1)C(=O)N[C@@H](CCCCN)C(=O)N[C@@H](C)C(=O)N[C@@H](CCCNC(=N)N)C(=O)N[C@@H](Cc1ccccc1)C(=O)N[C@@H](CCC(N)=O)C(=O)N[C@@H](C)C(=O)N[C@@H](CCC(=O)O)C(=O)N[C@@H](CCCNC(=N)N)C(=O)N[C@@H](Cc1c[nH]cn1)C(=O)N[C@@H](C)C(=O)N[C@@H](CCCNC(=N)N)C(=O)N[C@@H](CCC(=O)O)C(=O)N[C@@H](CCCCN)C(N)=O
B2: BODIPY-Ant-NLM-DR (peptide)
peptide: Ac-C(BODIPYFLEthylmaleimide)RQIKIWFQNRRMKWKKLKAQADIYKARFQAERHAREK-NH2
SMILES: CC[C@H](C)[C@H](NC(=O)[C@H](CC(=O)O)NC(=O)[C@H](C)NC(=O)[C@H](CCC(N)=O)NC(=O)[C@H](C)NC(=O)[C@H](CCCCN)NC(=O)[C@H](CC(C)C)NC(=O)[C@H](CCCCN)NC(=O)[C@H](CCCCN)NC(=O)[C@H](Cc1c[nH]c2ccccc12)NC(=O)[C@H](CCCCN)NC(=O)[C@H](CCSC)NC(=O)[C@H](CCCNC(=N)N)NC(=O)[C@H](CCCNC(=N)N)NC(=O)[C@H](CC(N)=O)NC(=O)[C@H](CCC(N)=O)NC(=O)[C@H](Cc1ccccc1)NC(=O)[C@H](Cc1c[nH]c2ccccc12)NC(=O)[C@@H](NC(=O)[C@H](CCCCN)NC(=O)[C@@H](NC(=O)[C@H](CCC(N)=O)NC(=O)[C@H](CCCNC(=N)N)NC(=O)[C@H](CSC1CC(=O)N(CCNC(=O)CCC2=[N+]3C(=Cc4c(C)cc(C)n4[B-]3(F)F)C=C2)C1=O)NC(C)=O)[C@@H](C)CC)[C@@H](C)CC)C(=O)N[C@@H](Cc1ccc(O)cc1)C(=O)N[C@@H](CCCCN)C(=O)N[C@@H](C)C(=O)N[C@@H](CCCNC(=N)N)C(=O)N[C@@H](Cc1ccccc1)C(=O)N[C@@H](CCC(N)=O)C(=O)N[C@@H](C)C(=O)N[C@@H](CCC(=O)O)C(=O)N[C@@H](CCCNC(=N)N)C(=O)N[C@@H](Cc1c[nH]cn1)C(=O)N[C@@H](C)C(=O)N[C@@H](CCCNC(=N)N)C(=O)N[C@@H](CCC(=O)O)C(=O)N[C@@H](CCCCN)C(N)=O
B3: BODIPY-Ant-CC2 (WT) (peptide)
peptide: Ac-C(BODIPYFLEthylmaleimide)RQIKIWFQNRRMKWKKSKGMQLEDLRQQLQQAEEALVAKQELIDKLKEEAEQHKIV-NH2
notes: Synthetic peptide; elutes as a monomer in gel filtration at 10 uM; also called Ant-CC2 BODIPY peptide
B4: BODIPY-R9-NLM-DR (peptide)
peptide: Ac-C(BODIPYFLEthylmaleimide)RRRRRRRRRLKAQADIYKARFQAERHAREK-NH2
SMILES: CC[C@H](C)[C@H](NC(=O)[C@H](CC(=O)O)NC(=O)[C@H](C)NC(=O)[C@H](CCC(N)=O)NC(=O)[C@H](C)NC(=O)[C@H](CCCCN)NC(=O)[C@H](CC(C)C)NC(=O)[C@H](CCCNC(=N)N)NC(=O)[C@H](CCCNC(=N)N)NC(=O)[C@H](CCCNC(=N)N)NC(=O)[C@H](CCCNC(=N)N)NC(=O)[C@H](CCCNC(=N)N)NC(=O)[C@H](CCCNC(=N)N)NC(=O)[C@H](CCCNC(=N)N)NC(=O)[C@H](CCCNC(=N)N)NC(=O)[C@H](CCCNC(=N)N)NC(=O)[C@H](CSC1CC(=O)N(CCNC(=O)CCC2=[N+]3C(=Cc4c(C)cc(C)n4[B-]3(F)F)C=C2)C1=O)NC(C)=O)C(=O)N[C@@H](Cc1ccc(O)cc1)C(=O)N[C@@H](CCCCN)C(=O)N[C@@H](C)C(=O)N[C@@H](CCCNC(=N)N)C(=O)N[C@@H](Cc1ccccc1)C(=O)N[C@@H](CCC(N)=O)C(=O)N[C@@H](C)C(=O)N[C@@H](CCC(=O)O)C(=O)N[C@@H](CCCNC(=N)N)C(=O)N[C@@H](Cc1c[nH]cn1)C(=O)N[C@@H](C)C(=O)N[C@@H](CCCNC(=N)N)C(=O)N[C@@H](CCC(=O)O)C(=O)N[C@@H](CCCCN)C(N)=O
B5: BODIPY-TAT-NLM-DR (peptide)
peptide: Ac-C(BODIPYFLEthylmaleimide)YGRKKRRQRRRLKAQADIYKARFQAERHAREK-NH2
SMILES: CC[C@H](C)[C@H](NC(=O)[C@H](CC(=O)O)NC(=O)[C@H](C)NC(=O)[C@H](CCC(N)=O)NC(=O)[C@H](C)NC(=O)[C@H](CCCCN)NC(=O)[C@H](CC(C)C)NC(=O)[C@H](CCCNC(=N)N)NC(=O)[C@H](CCCNC(=N)N)NC(=O)[C@H](CCCNC(=N)N)NC(=O)[C@H](CCC(N)=O)NC(=O)[C@H](CCCNC(=N)N)NC(=O)[C@H](CCCNC(=N)N)NC(=O)[C@H](CCCCN)NC(=O)[C@H](CCCCN)NC(=O)[C@H](CCCNC(=N)N)NC(=O)CNC(=O)[C@H](Cc1ccc(O)cc1)NC(=O)[C@H](CSC1CC(=O)N(CCNC(=O)CCC2=[N+]3C(=Cc4c(C)cc(C)n4[B-]3(F)F)C=C2)C1=O)NC(C)=O)C(=O)N[C@@H](Cc1ccc(O)cc1)C(=O)N[C@@H](CCCCN)C(=O)N[C@@H](C)C(=O)N[C@@H](CCCNC(=N)N)C(=O)N[C@@H](Cc1ccccc1)C(=O)N[C@@H](CCC(N)=O)C(=O)N[C@@H](C)C(=O)N[C@@H](CCC(=O)O)C(=O)N[C@@H](CCCNC(=N)N)C(=O)N[C@@H](Cc1c[nH]cn1)C(=O)N[C@@H](C)C(=O)N[C@@H](CCCNC(=N)N)C(=O)N[C@@H](CCC(=O)O)C(=O)N[C@@H](CCCCN)C(N)=O
B6: BODIPY-Ant-CC2 (Mu) (peptide)
peptide: Ac-C(BODIPYFLEthylmaleimide)RQIKIWFQNRRMKWKKSKGMQLEDLRQQGQQAEEAGVAKQELGDKLKEEAEQHKIV-NH2
notes: also called CC2 variant
B7: BODIPY-Ant-LZ (WT) (peptide)
peptide: Ac-C(BODIPYFLEthylmaleimide)RQIKIWFQNRRMKWKKLKAQADIYKADFQAERHAREKLVEKKEYLQEQLEQLQREFNKL-NH2
notes: Synthetic peptide; elutes as a monomer in gel filtration at 10 uM
B8: BODIPY-Ant-LZ (Mu) (peptide)
peptide: Ac-C(BODIPYFLEthylmaleimide)RQIKIWFQNRRMKWKKLKAQADIYKADFQAERHAREKLVEKKEYSQEQLEQSQREFNKL-NH2
notes: Two L to S mutations at d positions; also called BODIPY-Ant LZ mutant
B9: CC2 (Mu) (peptide)
peptide: Ac-SKGMQLEDLRQQGQQAEEAGVAKQELGDKLKEEAEQHKIV-NH2
notes: As for CC2 (WT), the printed theoretical mass (3987.43 Da) fits residues 6-40 only; also called CC2 mutant

What was measured:
[1] = biological target: T2, NEMO (NF-kB essential modulator), murine (murine, UniProt O88522 1-412); test: cell-based or functional assay
T2 sequence (O88522 other isoform, or with tags, fused parts or gaps): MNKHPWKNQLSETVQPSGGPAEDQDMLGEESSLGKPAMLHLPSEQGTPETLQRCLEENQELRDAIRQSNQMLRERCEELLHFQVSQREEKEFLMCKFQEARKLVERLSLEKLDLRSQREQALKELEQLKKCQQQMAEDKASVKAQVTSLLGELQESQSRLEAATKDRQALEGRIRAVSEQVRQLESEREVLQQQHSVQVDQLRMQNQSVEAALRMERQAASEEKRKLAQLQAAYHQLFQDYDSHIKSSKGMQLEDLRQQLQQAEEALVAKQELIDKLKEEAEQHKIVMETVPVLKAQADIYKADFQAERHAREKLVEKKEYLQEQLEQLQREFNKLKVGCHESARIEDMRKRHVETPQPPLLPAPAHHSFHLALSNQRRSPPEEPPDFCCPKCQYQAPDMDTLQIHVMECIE

[2] = biological target: T2, NEMO (NF-kB essential modulator), murine; test: cell-based or functional assay; remark: listed apart in the source
[3] = biological target: the molecule itself; test: gel filtration (Superdex 75), self-association
Experimental: The oligomeric states of peptides were determined by filtration as described in Traincard et al., 2003. In brief, 500 μl samples were loaded on a SUPERDEX™ 75 HR 10/30 column equilibrated in 50 mM Tris-HCl pH 8.0 containing 200 mM NaCl and 0.1 mM DDM, at a constant flow rate of 0.4 ml/min. The presence of the DDM detergent was added in the equilibrium buffer to minimize the adsorption in the column and to increase the peptide recovery. The column was calibrated in the same equilibrium buffer with blue dextran 2000 (void volume), dithioerythritol (total volume), bovine serum albumin (67 kDa, Rs=35.2 Å), ovalbumine (43 kDa, Rs=27.5 Å), chymotrypsinogen A (25 kDa, Rs=21.1 Å), ribonuclease A (13.7 kDa, Rs=16.4 Å), cytochrome C (12.4 kDa, Rs=17.7 Å) and aprotinin (6.5 KDa, Rs=13.5 Å).

CC2 (WT) [4] = biological target: T1, CC2 (WT); test: fluorescence anisotropy, 1 µM BODIPY-Ant-CC2 titrated with CC2
Experimental: (§1) (A) Direct titration of BODIPY-Ant-CC2 (1 μM) with CC2 by fluorescence anitropy. The concentration of CC2 was determined by amino acid analysis. Anisotropy values of BODIPY-Ant-CC2 in milliunits (mA) were plotted against an increasing concentration of the CC2 peptide. […] The two dashed lines represent a stoichiometric titration and intersect at an CC2 concentration of […]. Given the 1 μM concentration of the BODIPY-Ant-CC2, this gives a complex stoechiometrie of 0.8. (B) Direct titration of BODIPY-Ant-LZ (0.1 μM) with CC2 by fluorescence anitropy. The anisotropy values of the BODIPY-Ant-LZ alone (white bar) or in the presence of the CC2 peptide (30 μM, grey bar; 100 μM, black bar) are given in milliunits (mA).
(§2) Anisotropy measurements were performed with a PTI […]™ fluorometer equipped with polarizers for the excitation and emission beams. This instrument uses a PMT in the L-configuration. […] Steady-state fluorescence anisotropy was expressed as millianisotropy (mA) and was calculated according to the equations: (1) A=(IVV−GIVH)/(IVV+2GIVH); (2) G=IHV/IHH.; where A is anisotropy, G is a correction factor for wavelength-dependent distortion and I is the fluorescence intensity component (subscript referring to the vertical and horizontal positioning at the excitation and emission polarizers, respectively). […]

CC2 (WT) [5] = biological target: T1, CC2 (WT); test: fluorescence anisotropy, 1 µM BODIPY-Ant-CC2 titrated with 1-125 µM CC2
Experimental: as §1, §2

Row | Binder | IC 50 (inhibition of NF-κB activation pathway) [1] | binding result [3] | further results
1 | B1 | 900 nM |  | 
2 | B2 | 1100 nM |  | 
3 | B3 |  | no binding (tested: 10 µM) | IC50 of inhibition of LPS-induced NF-κB activation (β-galactosidase reporter, 70Z3-C3 cells) [2]: 22000 nM; fold reduction of LPS-induced NF-κB activation at 10 µM peptide (stringent β-galactosidase assay, 70Z3-C3 cells) [2]: 1.7 fold; stoichiometry (CC2 (WT) [4]): 0.8; Kd (CC2 (WT) [5]): 15200 nM
4 | B4 | 900 nM |  | 
5 | B5 | 1000 nM |  | 
6 | B6 |  | no binding (tested: 10 µM) | 
7 | B7 |  | no binding (tested: 10 µM) | IC50 of inhibition of LPS-induced NF-κB activation (β-galactosidase reporter, 70Z3-C3 cells) [2]: 3000 nM; fold reduction of LPS-induced NF-κB activation at 10 µM peptide (stringent β-galactosidase assay, 70Z3-C3 cells) [2]: 5.8 fold
8 | B8 |  | no binding (tested: 10 µM) | 
9 | B9 |  | no binding (tested: 10 µM) | 
